Assay results: patent US20060246076A1

Target: murine inducible nitric oxide synthase (murine) (UniProt P29477)

PGE2 formation reduction: > 50%
Substance: COX2-myc fragment 484-604 (from UniProt P35354)
